Measurements as given in PMC2649420.
Where two headings read alike, the source gives them in different places.

Key:
Experiment in all cases: SPR
[1] = molecular target: Sbi-III-IV (amino acids 150-266), domains III and IV of Sbi (S. aureus strain Mu50) (UniProt Q99RL2)
[2] = molecular target: Sbi-IV (amino acids 197-266), domain IV of Sbi (S. aureus strain Mu50) (UniProt Q99RL2)
[3] = molecular target: Sbi-III-IV (amino acids 150-266), domains III and IV of Sbi (S. aureus strain Mu50) (UniProt Q99RL2); remark: listed apart in the source

C3dg, recombinant (from UniProt P01024 955-1303) (domain or fragment)
Kd [1]: 700 nM
Kd [2]: 800 nM
Kd [3]: 1400 nM
